Literature values as cited in article PMC4089558.

Molecular target: CFP10 (Mycobacterium tuberculosis) (UniProt P9WNK5)
Sequence (P9WNK5 2-100): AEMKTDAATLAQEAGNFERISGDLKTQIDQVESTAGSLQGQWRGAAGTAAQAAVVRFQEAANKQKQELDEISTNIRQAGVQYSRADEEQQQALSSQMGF

Sequence of ESAT-6 (P9WNK7 2-95): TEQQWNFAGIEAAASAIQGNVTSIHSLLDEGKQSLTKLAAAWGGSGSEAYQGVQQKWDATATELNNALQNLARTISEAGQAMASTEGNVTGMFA

ESAT-6 (from UniProt P9WNK7)
Kd: 0.011 µM
